According to PMC5992459, “Novel DNA Aptamers that Bind to Mutant Huntingtin and Modify Its Activity”:

How the values were obtained:
[1] = biological target: endogenous huntingtin from HD60i4 NPC (CAG60/18) (Homo sapiens) (UniProt P42858); experiment: streptavidin pull-down; conditions: NPC lysate; ELISA: 10 mM Tris-HCl pH 8.0, 0.15 M NaCl (TBS), 2 mg/mL BSA block, 1 pmol huntingtin/well, 50 pmol biotin-aptamer, 2 h (RT for coating/blocking); caspase-6 …
[2] = biological target: Q78-huntingtin caspase-6 C-terminal fragment (270 kDa) (Homo sapiens, UniProt P42858 585-3142); experiment: caspase-6 digestion of complex, anti-biotin immunoblot; ELISA: 10 mM Tris-HCl pH 8.0, 0.15 M NaCl (TBS), 2 mg/mL BSA block, 1 pmol huntingtin/well, 50 pmol biotin-aptamer, 2 h (RT for coating/blocking); caspase-6 mapping: aptamer:huntingtin 10:1, 2 h RT, spin column; SLM: 5:1, 2 h RT; conditions: protein: recombinant; label: 5'-biotin; intramolecular G4
Chain of Q78-huntingtin caspase-6 C-terminal fragment (270 kDa) (P42858 585-3142): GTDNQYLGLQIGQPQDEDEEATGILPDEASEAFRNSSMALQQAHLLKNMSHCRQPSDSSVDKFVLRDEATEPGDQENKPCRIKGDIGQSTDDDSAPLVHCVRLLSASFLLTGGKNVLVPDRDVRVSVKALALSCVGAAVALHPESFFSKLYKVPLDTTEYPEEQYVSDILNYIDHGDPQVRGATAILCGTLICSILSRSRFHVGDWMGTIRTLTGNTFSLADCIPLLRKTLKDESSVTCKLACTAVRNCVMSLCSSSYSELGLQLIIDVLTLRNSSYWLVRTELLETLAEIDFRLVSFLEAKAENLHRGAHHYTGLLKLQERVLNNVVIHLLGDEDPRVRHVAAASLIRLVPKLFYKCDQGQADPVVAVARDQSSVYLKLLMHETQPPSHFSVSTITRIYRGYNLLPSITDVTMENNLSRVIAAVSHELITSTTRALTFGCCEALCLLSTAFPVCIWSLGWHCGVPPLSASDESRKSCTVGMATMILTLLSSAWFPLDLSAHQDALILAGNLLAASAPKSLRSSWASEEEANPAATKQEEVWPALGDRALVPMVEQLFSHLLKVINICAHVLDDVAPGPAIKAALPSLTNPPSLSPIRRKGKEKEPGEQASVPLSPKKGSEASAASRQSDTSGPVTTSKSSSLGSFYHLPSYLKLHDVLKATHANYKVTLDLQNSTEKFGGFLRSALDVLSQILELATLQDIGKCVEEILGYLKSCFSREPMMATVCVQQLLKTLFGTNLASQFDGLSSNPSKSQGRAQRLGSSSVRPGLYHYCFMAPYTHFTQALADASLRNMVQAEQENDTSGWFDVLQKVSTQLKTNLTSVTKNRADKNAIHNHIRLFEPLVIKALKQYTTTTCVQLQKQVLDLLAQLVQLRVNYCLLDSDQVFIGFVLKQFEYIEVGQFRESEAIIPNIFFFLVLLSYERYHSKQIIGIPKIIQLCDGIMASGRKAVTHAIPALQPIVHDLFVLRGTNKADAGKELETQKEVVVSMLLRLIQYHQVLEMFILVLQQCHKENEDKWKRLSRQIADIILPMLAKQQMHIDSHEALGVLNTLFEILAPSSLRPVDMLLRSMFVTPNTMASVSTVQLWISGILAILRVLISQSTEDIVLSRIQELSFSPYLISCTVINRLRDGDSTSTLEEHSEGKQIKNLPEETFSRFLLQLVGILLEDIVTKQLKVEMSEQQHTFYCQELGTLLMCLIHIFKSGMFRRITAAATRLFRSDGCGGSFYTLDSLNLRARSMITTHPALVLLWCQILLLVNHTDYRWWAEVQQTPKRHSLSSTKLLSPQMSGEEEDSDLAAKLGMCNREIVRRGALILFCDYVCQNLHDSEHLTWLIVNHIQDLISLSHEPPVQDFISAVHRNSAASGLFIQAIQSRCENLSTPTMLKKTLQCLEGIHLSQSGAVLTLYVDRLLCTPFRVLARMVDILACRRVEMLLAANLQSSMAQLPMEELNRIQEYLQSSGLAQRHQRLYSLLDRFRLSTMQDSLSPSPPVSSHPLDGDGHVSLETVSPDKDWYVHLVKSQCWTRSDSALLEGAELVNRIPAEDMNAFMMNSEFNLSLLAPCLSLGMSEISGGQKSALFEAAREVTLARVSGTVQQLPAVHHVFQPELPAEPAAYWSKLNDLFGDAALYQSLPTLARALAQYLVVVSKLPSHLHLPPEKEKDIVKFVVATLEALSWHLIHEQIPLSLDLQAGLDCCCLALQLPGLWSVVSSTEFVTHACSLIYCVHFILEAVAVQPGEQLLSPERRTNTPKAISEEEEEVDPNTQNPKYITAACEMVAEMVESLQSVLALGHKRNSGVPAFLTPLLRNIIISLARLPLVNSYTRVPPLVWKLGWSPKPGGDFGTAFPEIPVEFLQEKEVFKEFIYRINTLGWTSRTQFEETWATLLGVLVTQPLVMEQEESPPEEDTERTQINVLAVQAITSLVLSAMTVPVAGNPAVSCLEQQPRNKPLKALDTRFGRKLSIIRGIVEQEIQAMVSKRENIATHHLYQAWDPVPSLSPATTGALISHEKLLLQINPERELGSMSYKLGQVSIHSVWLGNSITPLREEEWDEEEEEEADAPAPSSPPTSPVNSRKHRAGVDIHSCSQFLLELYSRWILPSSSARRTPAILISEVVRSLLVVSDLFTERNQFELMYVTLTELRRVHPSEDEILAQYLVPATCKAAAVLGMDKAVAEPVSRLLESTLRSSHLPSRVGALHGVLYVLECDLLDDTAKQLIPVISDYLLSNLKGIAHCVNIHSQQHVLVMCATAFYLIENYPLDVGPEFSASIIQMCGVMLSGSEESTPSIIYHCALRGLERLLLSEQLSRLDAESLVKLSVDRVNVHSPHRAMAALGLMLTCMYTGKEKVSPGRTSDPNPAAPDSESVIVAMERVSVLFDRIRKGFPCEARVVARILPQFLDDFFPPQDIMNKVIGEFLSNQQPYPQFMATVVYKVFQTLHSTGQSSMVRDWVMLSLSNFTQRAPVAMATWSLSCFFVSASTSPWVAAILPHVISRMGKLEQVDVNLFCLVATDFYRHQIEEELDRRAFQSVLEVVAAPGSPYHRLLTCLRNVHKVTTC

Row | Molecule | binding signal (fold vs HD17m8) [1] | binding result [2]
1 | GGGAGGGAGGGAGGGAGGGAGGGAGGGAGGGAGGGA [MS3] | 3.6 | 
2 | AGGGGTGGGGAGGGGTGGGGA (structured_DNA) [MS1] |  | binds
3 | TGGGGAGGGGAGGGGCGGGGT (structured_DNA) [MS4] |  | binds
4 | AGGGGTGGGGAGGGGAGGGGA (structured_DNA) [MS2] |  | binds
5 | GGGAGGGAGGGAGGGAGGGAGGGAGGGAGGGAGGGA (structured_DNA) [MS3] |  | binds
